Source: patent US20230212533

Legend:
[1] = molecular target: Bovine mitochondrial cytochrome c, P62894
[2] = molecular target: T1, CycN cytochrome c protein (Pseudomonas putida S16)
T1 chain: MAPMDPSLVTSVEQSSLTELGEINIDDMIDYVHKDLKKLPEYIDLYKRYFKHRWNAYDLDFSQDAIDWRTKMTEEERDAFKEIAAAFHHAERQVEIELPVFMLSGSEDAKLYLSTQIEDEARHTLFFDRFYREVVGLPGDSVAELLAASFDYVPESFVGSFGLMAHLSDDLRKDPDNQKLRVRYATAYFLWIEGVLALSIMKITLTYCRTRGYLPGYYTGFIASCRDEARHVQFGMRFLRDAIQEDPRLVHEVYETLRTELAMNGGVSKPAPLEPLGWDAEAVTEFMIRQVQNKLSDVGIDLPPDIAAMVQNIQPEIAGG

Chain of Bovine mitochondrial cytochrome c, P62894 (P62894 2-105): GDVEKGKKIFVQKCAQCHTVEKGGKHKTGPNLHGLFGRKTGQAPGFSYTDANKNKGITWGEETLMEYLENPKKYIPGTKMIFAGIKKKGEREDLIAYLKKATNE

B1: NicA2 nicotine oxidoreductase (wild-type, Pseudomonas putida S16) (protein)
chain: TQKTNRASTVKGGFDYDVVVVGGGFAGATAARECGLQGYRTLLLEARSRLGGRTFTSRFAGQEIEFGGAWVHWLQPHVWAEMQRYGLGVVEDPLTNLDKTLIMYNDGSVESISPDEFGKNIRIAFEKLCHDAWEVFPRPHEPMFTERARELDKSSVLDRIKTLGLSRLQQAQINSYMALYAGETTDKFGLPGVLKLFACGGWNYDAFMDTETHYRIQGGTIGLINAMLTDSGAEVRMSVPVTAVEQVNGGVKIKTDDDEIITAGVVVMTVPLNTYKHIGFTPALSKGKQRFIKEGQLSKGAKLYVHVKQNLGRVFAFADEQQPLNWVQTHDYSDELGTILSITIARKETIDVNDRDAVTREVQKMFPGVEVLGTAAYDWTADPFSLGAWAAYGVGQLSRLKDLQAAEGRILFAGAETSNGWHANIDGAVESGLRAGREVKQLLS
In the case of B1, the “reduction of bovine cytochrome c, UV-VIS absorbance 250-600 nm for 15 minutes; 6.84 µM bovine cytochrome c with NicA2 and nicotine” value [1] is reported as “The bovine mitochondrial cytochrome c was not efficiently reduced by this system”, the “kobs for the second phase, stopped-flow at 542 nm” value [2] is reported as “invariant at ˜5.5 s^-1 independent of the CycNox concentration used” and the “reduction of CycN heme, UV-VIS absorbance (Soret band, 410 and 550 nm); 3.75 µM CycN, 30 nM NicA2, 100 µM nicotine” value [2] is reported as “a characteristic increase and shift of Soret banding pattern was observed, which indicated that CycN had become reduced”. For the same protein, the “time to complete electron transfer, anaerobic stopped-flow; 15 µM NicA2-Flred mixed with excess CycNox” value [2] was “Electron transfer between NicA2-Flred and CycNox appeared to be very rapid, being complete in under one second”.
